Reference: PMC8986801, “Activation of the essential kinase PDK1 by phosphoinositide-driven trans-autophosphorylation” (Nature Communications, 2022)

Target: the molecule itself
Assay: SEC-MALS; 50 μl of purified protein injected on Superdex 200 10/300; 50 mM Tris pH 7.5, 100 mM NaCl, 2% glycerol, 1 mM TCEP, 2 mM MgCl2, ±1 mM ATP; self-association (monomer or dimer)

B1: PDK1^SKD-PIF S241A (PIFtide fused through a (GS)4 linker to the C-terminus of the short kinase domain, S241A) (other)
chain: QPRKKRPEDFKFGKILGEGSFSTVVLARELATSREYAIKILEKRHIIKENKVPYVTRERDVMSRLDHPFFVKLYFTFQDDEKLYFGLSYAKNGELLKYIRKIGSFDETCTRFYTAEIVSALEYLHGKGIIHRDLKPENILLNEDMHIQITDFGTAKVLSPESKQARANAFVGTAQYVSPELLTEKSACKSSDLWALGCIIYQLVAGLPPFRAGNEYLIFQKIIKLEYDFPEKFFPKARDLVEKLLVLDATKRLGCEEMEGYGPLKAHPFFESVTWENLHQQTPPKLTGSGSGSGSQEMFRDFDYIADWC
notes: 3-phosphoinositide-dependent kinase 1 (PDK1), human, residues 73-359 (short kinase domain); minimal poly Gly-Ser (GS)4 linker; PIFtide, a peptide derived from the hydrophobic motif of PRK2; also called C-terminal PIFtide SKD fusion S241A; dimer; source: baculovirus-infected Sf9 insect cells, purified (glutathione sepharose, 3C cleavage, HiTrap Q, gel filtration); not shown: GST, N-terminal, …
stoichiometry N: 2
